Series [1] concerns T1, standard peptide substrate MHRQETVDCLK
T1 sequence: MHRQETVDCLK

Series [2] relates to T2, generic peptide substrate RARTLSFAEPG
T2 sequence: RARTLSFAEPG

Regarding “alpha-isoform of calmodulin-dependent protein kinase II (CaMKII)”, the values for the Km in series [1] and in series [2] were 60 µM and 300 µM, respectively.

What is called Km is the substrate concentration at which the rate is half of its maximum.

For the origin of these results see patent publication US7727950.
